Where a chain is given by its changes, count along the chain named.

Data set [1] deals with T1, LC8 (Homo sapiens, UniProt Q96FJ2).
T1 construct: 6xHis (N); made in house; host or cells: E. coli BL21 (DE3) Rosetta
The experiment in a line: SDS-PAGE densitometric analysis of gel filtration fractions (sLCA5:LC8 molar ratio). Particulars: SDS-PAGE densitometry; result in words. It counts as binding. The procedure:
(§1) For analytical gel filtration a Superose 6 Increase 10/300 (Cytiva) was used with an effective resolution between 5–5000 kDa range and a void volume above 5000 kDa. The column was equilibrated in DPBS supplemented with 200 μM TCEP. The calibration curve was fitted on the chromatogram of gel filtration standard mix (BioRad) with the addition of Dextran Blue to determine the void volume. 100 μl of LCA5 purified protein or LCA5-LC8 complex was injected at the concentration of 30 μM for LCA5 and 150 μM for LC8, with a flow rate of 500 μl/min immediately or after 60 min of incubation at 37 °C. For densitometric analysis, fractions were collected and 200 μl of samples were precipitated in 1.8 ml 96% ethanol at − 80 °C for 2 h. The samples were centrifugated for 30 min at 14,000 g, and dissolved in 15 μl of SDS sample buffer. 10 μl of each sample was run on Tricine-SDS gel. The calibration of the densitometry was performed on samples of known molar ratio of sLCA5 construct and LC8 (see the original gel used for calibration on Suplementary Fig. S16). Data evaluation was performed by using Origin 8 software and Fiji ImageJ software.

For data set [2], the target named is T1, LC8. The experiment in a line: isothermal titration calorimetry, sLCA5 fragments titrated with LC8. Format: binding. Conditions: ITC, PBS pH 7.4, 1 mM TCEP, 37 °C; MBP-fused sLCA5 titrated with LC8. The procedure:
LC8 and MBP-fused LCA5 constructs were prepared in PBS supplemented with 1 mM TCEP. Before measurement, protein samples were dialyzed overnight in PBS pH 7.4 (Orange Scientific, OrDial D14 membrane). Peptides were diluted from stock with the buffer used for dialysis. The concentration of samples was determined based on absorbance at 280 nm in the case of proteins, and 205 nm for the peptide. Experiments were performed using MicroCal PEAQ-ITC (Malvern Panalytical), LCA5 peptides were measured at 25 °C, proteins were analyzed at 37 °C. Lebercilin peptide was injected into the cell 18 times 2 μl volumes, with 5 min timing between injections. In case of the protein, LCA5 was placed in the sample cell, and LC8 was injected during 37 injections, 1 μl each. The results were evaluated using MicroCal PEAQ-ITC Analysis Software.
Background: ITC needs no label: the signal is the heat of the interaction.

In another data set the test system is GST-fused LC8. The experiment in a line: GST pull-down of LC8 and sLCA5. It counts as binding. Particulars: GST-LC8 bait, MBP-, 6x-His-fused sLCA5 prey, PBS, 1 mM DTT, room temperature; result in words. The procedure:
For the pull-down experiments, GST-fused LC8 was used as bait, and MBP-, 6x-His-fused LCA5 variants as prey. For controls, GST and MBP were used. Proteins were expressed in 100 ml cultures of E. coli BL21 (DE3) Rosetta cells as described above. Cells were harvested, resuspended in 5 ml PBS supplemented with 1 mg/ml lysozyme and 1 mM DTT, sonicated and clarified by centrifugation. 20 μl of Glutathione Sepharose 4B (Macherey–Nagel) (75%) resin was used for each experiment. Baits were incubated with the resin for 1 h at room temperature, then washed with PBS supplemented with 1 mM DTT. Prey proteins were added and incubated for one hour. The beads were washed and eluted by boiling in a 2 × SDS sample buffer and analyzed in tricine SDS page according to the protocol of Schagger et al[43].

A short description of data set [3]: negative staining transmission electron microscopy of sLCA5-LC8 complexes. It counts as physicochemical. The procedure: For TEM negative staining experiments, a JEOL JEM-1011 (JEOL Ltd., Tokyo, Japan) electron microscope was used. The purified LCA5-LC8 complexes or LC8 or LCA5 forms alone were put together by using LCA5-WT or the single or double mutants at 30 μM and LC8 at 150 μM concentration in a buffer of 20 mM Tris 70 mM NaCl, pH 7.4, and incubated at 37 °C for 1 h. The complexes were diluted to a final 0.2 mg/ml concentration in the buffer and applied to 300 mesh formvar/carbon-coated copper grids (SPI Inc., USA). After 2 min of incubation the surplus was removed by filter paper and 1% uranyl acetate was applied for 1 min as negative staining. Images were taken around the middle of the grid at 5000, 50,000, 150,000 and 300,000-fold magnification. The collected data was analyzed by Fiji ImageJ software, and the statistical analysis was carried out in Origin 8 software.

Data set [4] is described as follows: analytical gel filtration. Format: physicochemical. Particulars: with LC8, 60 min at 37 °C vs non-incubated complex. The procedure: as §1
(In gel filtration, larger molecules generally elute earlier.)

The test system of a further data set is HA-tagged LC8. Kind of data set: co-immunoprecipitation of LC8 with full-length FLAG-LCA5 in HEK293 cells. It counts as cell-based, human. Conditions: for co-immunoprecipitation of LC8: HEK-293, FLAG-LCA5 and HA-LC8 co-expressed 48 h, anti-LCA5 and anti-FLAG antibodies. Here is the method:
HEK-293 cells were transfected with FLAG-LCA5-pcDNA3.1 + and HA-LC8-pcDNA3.1 + constructs and incubated for 48 h. After 48 h, cells were washed with ice-cold DPBS (Lonza) and lysed on ice with lysis buffer (50 mM TRIS 2 mM EDTA 100 mM NaCl 10% Glycerol and 0.5% IGEPAL supplemented with protease (Sigma Aldrich) and phosphatase (Sigma-Aldrich) inhibitors). Total protein concentration was determined by the BCA kit (Sigma Aldrich). For each co-immunoprecipitation reaction 1 mg total protein was used and 20 μg of anti-lebercilin (19,333-1-AP Proteintech), anti-LC8 (16,811–1-AP Proteintech), polyclonal antibody, anti-FLAG (8146 Cell Signaling Technologies), anti-MYC (2276 Cell Signaling Technologies) or anti-HA (sc-7392 Santa Cruz Biotechnology) monoclonal antibody was added respectively and incubated for 4 h at 4 °C. The immunocomplexes were incubated with protein A/G sepharose beads (Cell Signaling Technologies) overnight. The immunocomplex-containing beads were washed three times in lysis buffer, then two times in detergent-free lysis buffer, proteins were eluted by boiling in 2 × Laemmli buffer. The samples were analyzed by 10% tricine-SDS PAGE. The SDS gel was cut half above the 35 kDa marker band and subsequently blotted onto two separate Amersham Hybond PVDF membrane (GE Healthcare). The LCA5 containing upper half was blotted for 180 min, the LC8 containing lower part was blotted for 80 min. The membranes were blocked in 5% BSA and the LCA5 and LC8 containing parts are incubated with mouse anti-FLAG 1:1000 (8146 Cell Signaling Technologies), and rabbit anti-LC8 1:1000 (ab51603 Abcam) primary antibodies respectively overnight at 4 °C. After washing with TBS-T, membranes were incubated with secondary antibodies (ECL PLEX Goat-Anti-Rabbit IgG CY5 1:1500 and CL PLEX Goat-Anti-Mouse IgG CY3 1:1500, Ge Healthcare) for 1 h at room temperature, then scanned in a Typhoon scanner (GE Healthcare).

T1 sequence (Q96FJ2 whole entry): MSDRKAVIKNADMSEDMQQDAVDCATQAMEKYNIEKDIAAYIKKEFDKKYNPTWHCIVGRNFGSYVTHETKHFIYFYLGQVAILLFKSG

B1: sLCA5-ΔVQT: sLCA5 with the three core residues VQT exchanged for three alanines (protein)
chain: DTDLVTKRILSARLLKINELQNEVSELQVKLAELLKENKSLKRLQYRQEKALNKFEDAENEISQLIFRHNNEITALKERLRKSQEKERATEKRVKDTESELFRTKFSLQKLKEISEARHLPERDDLAKKLVSAELKLDDTERRIKELSKNLELSTNSFQRQLLAERKRAYEAHDENKVLQKEVQRLYHKLKEKERELDIKNIYSNRLPKSSPNKEKELALRKNAACQSDFADLCTKGAAAMEDFKPEEYPLTPETIMCYENKWEEPGHLTLDLQSQKQDRHGEAGILNPIMEREEKFVTDEELHVVKQEVEKLEDEWEREELDKKQKEKASLLER
modifications: left off: MBP, N-terminal, kept | His6, C-terminal, kept
notes: sLCA5 with the three core residues VQT exchanged for three alanines
Regarding B1, the “LC8 content of fraction” value with LC8 [1] is given as “only a trace amount of LC8”. In addition, in the data set with LC8 [2], the “− TΔS” value came out at 4.32 kcal/mol. For the same molecule, in the data set on GST-fused LC8, the “interaction with LC8 (GST pull-down)” value is “did not abolish the interaction with LC8”.

B2: sLCA5-ΔCQS: sLCA5 with alanine mutations in the CQS motif core; VQT motif intact (protein)
chain: B1 chain with C226A, Q227A, S228A, A238V, A239Q, A240T
modifications: left off: MBP, N-terminal, kept | His6, C-terminal, kept
notes: sLCA5 with alanine mutations in the CQS motif core; VQT motif intact
As to B2, the “measured diameter median of spherical complexes” value in data set [3] (30 μM sLCA5 + 150 μM LC8, 37 °C 1 h, 20 mM Tris 70 mM NaCl pH 7.4) amounted to 32 nm. Moreover, the “amount of detectable oligomeric particles” value in data set [3] (TEM, result in words) was “notable amount of particles around the edges of the grids”. Besides, the “− TΔS” value with LC8 [2] turned out to be 0.07 kcal/mol. In addition, the “interaction with LC8 (GST pull-down)” value with GST-fused LC8 is “maintained the interaction with LC8”. Further, the “void fraction increment on incubation” value in data set [4] came out at 35%.

B3: FLAG-LCA5: full-length LCA5 with N-terminal FLAG-tag (protein)
chain: MGERAGSPGTDQERKAGKHHYSYLSDFETPQSSGRSSLVSSSPASVRRKNPKRQTSDGQVHHQAPRKPSPKGLPNRKGVRVGFRSQSLNREPLRKDTDLVTKRILSARLLKINELQNEVSELQVKLAELLKENKSLKRLQYRQEKALNKFEDAENEISQLIFRHNNEITALKERLRKSQEKERATEKRVKDTESELFRTKFSLQKLKEISEARHLPERDDLAKKLVSAELKLDDTERRIKELSKNLELSTNSFQRQLLAERKRAYEAHDENKVLQKEVQRLYHKLKEKERELDIKNIYSNRLPKSSPNKEKELALRKNAACQSDFADLCTKGVQTMEDFKPEEYPLTPETIMCYENKWEEPGHLTLDLQSQKQDRHGEAGILNPIMEREEKFVTDEELHVVKQEVEKLEDEWEREELDKKQKEKASLLEREEKPEWETGRYQLGMYPIQNMDKLQGEEEERLKREMLLAKLNEIDRELQDSRNLKYPVLPLLPDFESKLHSPERSPKTYRFSESSERLFNGHHLQDISFSTPKGEGQNSGNVRSPASPNEFAFGSYVPSFAKTSERSNPFSQKSSFLDFQRNSMEKLSKDGVDLITRKEKKANLMEQLFGASGSSTISSKSSDPNSVASSKGDIDPLNFLPGNKGSRDQEHDEDEGFFLSEGRSFNPNRHRLKHADDKPAVKAADSVEDEIEEVALR
modifications: left off: FLAG, N-terminal, kept
notes: full-length LCA5 with N-terminal FLAG-tag
On to B3, for which the “co-immunoprecipitation of LC8” value is on record as “interaction was detected” in the data set on HA-tagged LC8 and “LC8 was co-precipitated” in the data set on HA-tagged LC8 (listed as FLAG-tagged LCA5). Moreover, the co-immunoprecipitation interaction result in the data set with HA-tagged LC8 (HEK-293, FLAG-LCA5 and HA-LC8 co-expressed, precipitation with anti-HA and anti-LC8 antibodies) is reported as “no”.

The values are drawn from publication PMC9481538, “The interaction between LC8 and LCA5 reveals a novel oligomerization function of LC8 in the ciliary-centrosome system” (Scientific Reports, 2022).
